This note sets out measurements from patent US7223734B2, “Plasma protein-binding ligands” (The American National Red Cross, priority 2002, dated 2007).

Test [1] concerns the target T1, fibrinogen (Homo sapiens, UniProt P02671+P02675+P02679).
T1 construct: from tissue; host or cells: human plasma
T1 sequence (P02671 20-629 limits assumed): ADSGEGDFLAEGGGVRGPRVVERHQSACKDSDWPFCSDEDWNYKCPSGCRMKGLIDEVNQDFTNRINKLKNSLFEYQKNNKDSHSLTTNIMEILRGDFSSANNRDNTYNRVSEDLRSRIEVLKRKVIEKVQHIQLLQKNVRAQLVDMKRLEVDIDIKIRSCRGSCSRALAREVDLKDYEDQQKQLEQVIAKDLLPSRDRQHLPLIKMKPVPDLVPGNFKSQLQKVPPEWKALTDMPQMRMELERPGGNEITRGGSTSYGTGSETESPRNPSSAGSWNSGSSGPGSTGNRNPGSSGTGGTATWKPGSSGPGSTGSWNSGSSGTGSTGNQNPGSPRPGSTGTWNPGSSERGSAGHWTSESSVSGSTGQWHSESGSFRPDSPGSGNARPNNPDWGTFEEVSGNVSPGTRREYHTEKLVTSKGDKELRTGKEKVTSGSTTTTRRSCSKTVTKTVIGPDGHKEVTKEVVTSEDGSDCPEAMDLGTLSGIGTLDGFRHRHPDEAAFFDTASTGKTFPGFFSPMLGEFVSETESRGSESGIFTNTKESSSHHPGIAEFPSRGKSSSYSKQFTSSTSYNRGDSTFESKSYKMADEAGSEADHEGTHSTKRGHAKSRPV
T1 sequence (P02675 31-491): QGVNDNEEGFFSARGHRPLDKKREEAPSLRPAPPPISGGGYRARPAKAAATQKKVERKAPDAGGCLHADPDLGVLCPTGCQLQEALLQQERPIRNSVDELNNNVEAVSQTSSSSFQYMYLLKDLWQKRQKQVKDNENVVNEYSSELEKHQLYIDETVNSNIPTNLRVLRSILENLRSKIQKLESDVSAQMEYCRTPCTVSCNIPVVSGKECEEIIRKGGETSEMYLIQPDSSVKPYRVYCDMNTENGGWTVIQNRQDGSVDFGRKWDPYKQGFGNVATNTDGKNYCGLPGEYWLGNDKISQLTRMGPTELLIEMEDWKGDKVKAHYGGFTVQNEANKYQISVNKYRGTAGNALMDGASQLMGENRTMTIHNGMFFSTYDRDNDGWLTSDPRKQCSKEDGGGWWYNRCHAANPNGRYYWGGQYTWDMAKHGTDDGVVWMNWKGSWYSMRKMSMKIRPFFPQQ
T1 sequence (P02679 27-433 limits assumed): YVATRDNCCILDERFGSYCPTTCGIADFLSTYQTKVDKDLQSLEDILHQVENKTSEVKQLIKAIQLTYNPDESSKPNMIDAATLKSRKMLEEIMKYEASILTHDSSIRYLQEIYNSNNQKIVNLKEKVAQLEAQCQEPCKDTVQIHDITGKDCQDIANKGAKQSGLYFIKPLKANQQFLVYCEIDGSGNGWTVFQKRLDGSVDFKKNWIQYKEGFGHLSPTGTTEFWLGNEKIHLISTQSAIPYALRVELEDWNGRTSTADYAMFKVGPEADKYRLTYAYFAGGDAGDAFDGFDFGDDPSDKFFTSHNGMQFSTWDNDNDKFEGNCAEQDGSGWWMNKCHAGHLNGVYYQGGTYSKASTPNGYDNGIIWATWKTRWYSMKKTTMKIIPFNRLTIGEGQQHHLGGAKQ
In words: Purification of fibrinogen from plasma by affinity chromatography on D-ARQFDF resin (Example 2). It is filed as binding. How it is done: ToyoPearl AF-Amino 650 M resin beads displaying dried D-ARQFDF (SEQ ID NO: 20) peptide via an epsilon amino caproic acid (EACA) spacer were suspended in 20% methanol for a minimum of 2 hours before equilibration in 0.12–0.15 M NaCl, 0.020 M sodium citrate, pH 6.5–7.5. For 2.0–2.1 ml columns, about […] of resin was obtained. The resin was subsequently packed in an Omni Column of 1.0–1.5 cm diameter and evaluated either on an ÄKTAExplorer System or BIO RAD BioLogic LP. Optical density at 280 nm–320 nm and conductivity was constantly monitored during the evaluations. Flow rates were selected according to column size to achieve linear velocities of 30–60 cm/hour and residence times between 5–8 minutes.
All evaluations were performed at room temperature with cryo-rich plasma that had been 0.8 μm and 0.45 μm filtered. A linear velocity (LV) of […] was maintained throughout the experiments. Fifty milliliters of plasma was applied at 1.5 ml/min (RT=6.7) onto 10 ml column (height 5.7 cm, CF=1.77 cm^2) that had been equilibrated with 0.14 M NaCl, 0.020 M sodium citrate, pH 7.0 (EQ buffer). After the column was washed with EQ buffer to baseline, the fibrinogen was eluted with 0.3 M glycine, 0.5 M NaCl at pH 9.0 (10 CV). The column was regenerated with 2% Sarkosyl, 2.0 M guanidine-HCl, 30% ethanol, followed by a 70% ethanol/2% acetic acid mixture and stored in 20% methanol.

For test [2], the target named is T2, API (Homo sapiens, UniProt P01009).
T2 construct: from tissue; host or cells: human plasma (whole, fibrinogen-depleted or F1-Apo-depleted)
T2 sequence (P01009 25-418): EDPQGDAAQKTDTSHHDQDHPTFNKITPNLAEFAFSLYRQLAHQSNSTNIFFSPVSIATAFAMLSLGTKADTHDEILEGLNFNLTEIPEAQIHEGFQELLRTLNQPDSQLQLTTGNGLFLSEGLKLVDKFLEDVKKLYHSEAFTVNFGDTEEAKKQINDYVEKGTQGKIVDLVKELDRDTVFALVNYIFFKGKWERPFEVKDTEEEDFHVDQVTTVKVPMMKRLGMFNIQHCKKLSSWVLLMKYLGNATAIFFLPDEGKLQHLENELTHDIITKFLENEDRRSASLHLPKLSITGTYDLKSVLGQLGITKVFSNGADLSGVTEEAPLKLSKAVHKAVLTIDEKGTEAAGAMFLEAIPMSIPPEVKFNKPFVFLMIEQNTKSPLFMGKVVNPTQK
As to the kind of experiment: Preparation of fibrinogen- and Apo-A1-depleted plasma: API in flow-through (Example 5). It is filed as binding. As to conditions: after chromatography on the named resin. The procedure: (§1) Toyopearl AF Amino 650M resin displaying a peptide consisting essentially of the amino acid sequence D-ARQFDF (SEQ ID NO: 20) was suspended for 2 hours in 20% methanol. After washing with distilled water, the resin was packed into an Omni column (column volume (CV)=10 ml; diameter 1.5 cm; CF 1.77 cm^2) and equilibrated in 0.14 M NaCl, 0.020 M sodium citrate, pH 7.0 (EQ buffer). Fifty milliliters of filtered plasma (0.80 mm, Nalgene CN, Cat. No. 380-0080; 0.45 μm, Corning CA, Cat. No. 431155; 0.20 μm, Nalgene PES, Cat. No. 165-0020) were loaded on the Omni columns at a linear velocity (LV) of 50 cm/H (flow rate (FR)=1.5 ml/min; residence time (RT)=6.7 minutes). The flow-through was collected in column volumes. After pooling fibrinogen-depleted plasma (50 ml), the flow-through was loaded onto a column comprising a resin displaying an Apo-A1 lipoprotein-binding ligand (D-WWLHIN (SEQ ID NO: 33)), as described below. The fibrinogen-binding column was washed with 12 CVs of EQ buffer and the fibrinogen eluted with 10 CVs of 0.3 M glycine, 0.5 M NaCl, pH 9.0. The column was regenerated with 10 CVs of 2% Sarkosyl, pH 8.0, followed by 10 CVs of 2.0 M guanidine (GuHCl). After washing with 5 CVs of distilled water, the column was further cleaned with 6 CVs of 30% ethanol and 6 CVs of 70% ethanol containing 2% acetic acid. […]

Test [3] has as its target T1, fibrinogen. As to the kind of experiment: Preparation of fibrinogen- and Apo-A1-depleted plasma: fibrinogen capture (Example 5). It is filed as binding. The conditions noted are these: nephelometric and clotting analysis. How it is done:
as §1

In test [4] the test system is Apo-A1 lipoprotein. As to the kind of experiment: Preparation of fibrinogen- and Apo-A1-depleted plasma: Apo-A1 in flow-through (Example 5). It is filed as binding, human. As to conditions: after treatment with the named resin. How it is done:
as §1

For test [5], the target named is T2, API. As to the kind of experiment: API recovery in Apo-A1 purification run (Example 4). It is filed as binding. As to conditions: load 10.6 mg. The procedure:
(§2) Apo-A1 lipoprotein purification was accomplished with D-WWLHIN (SEQ ID NO: 33) peptides and several analogs. Indeed, about 100% Apo-A1 lipoprotein depletion from plasma was repeatedly obtained with D-WWLHAN (SEQ ID NO: 56) and D-WWLHIN (SEQ ID NO: […]). Fourteen milliliters of fibrinogen-depleted plasma was loaded onto a 2.3 ml column (CF=0.785 cm^2) at 0.4 ml/min. (LV=30 cm/H; RT=5.8) that had been equilibrated with 0.14 M NaCl, 0.020 M sodium citrate, pH 7.0 (EQ buffer). After the column was washed with EQ buffer to baseline, Apo-A1 lipoprotein was eluted with 2.0 M NaCl, 1% Tween-20, 0.020M sodium citrate, pH 7.0. The column was regenerated with 2.0 M guanidine-HCl, 2% Sarkosyl, and 2% acetic acid and stored in 20% methanol.

The target of test [6] is T3, Apo-A1 lipoprotein (Homo sapiens, UniProt P02647).
T3 construct: from tissue; host or cells: human plasma (whole or fibrinogen-depleted)
T3 sequence (P02647 25-267 limits assumed): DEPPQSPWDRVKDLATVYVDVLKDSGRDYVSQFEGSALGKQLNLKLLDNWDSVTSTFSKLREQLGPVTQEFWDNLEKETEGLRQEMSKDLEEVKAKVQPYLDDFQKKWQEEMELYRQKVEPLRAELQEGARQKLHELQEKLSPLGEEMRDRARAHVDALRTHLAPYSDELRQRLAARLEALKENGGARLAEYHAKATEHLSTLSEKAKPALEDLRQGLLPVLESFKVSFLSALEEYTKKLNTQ
In words: Apo-A1 lipoprotein purification from fibrinogen-depleted plasma on peptide resin column (Example 4). The conditions noted are these: for removal / depletion of Apo-A1 lipoprotein in flow-through: fibrinogen-depleted plasma, 14 ml on 2.3 ml resin, SDS-PAGE. It is filed as binding. The procedure: as §2

The next test has as its target T4, albumin (Homo sapiens, UniProt P02768).
T4 construct: from tissue; host or cells: human plasma (fibrinogen-depleted or F1-Apo-depleted)
As to the kind of experiment: Albumin recovery in Apo-A1 purification run (Example 4). It is filed as binding. The conditions noted are these: load 372 mg. How it is done:
as §2

“And” between values parts separate entries of the source, which are not always exact repeats. Equal entries are not always repeated. Non-standard residues stand in square brackets, D forms with d. No end group written: not given here.

Consider “D-ARQFDF ([dA]RQFDF; not fully specified (residues 2, 3, 4, 5, 6, C-terminus))”, for which the “Total Fibrinogen” value with fibrinogen [1] (Elution, plasma load 51 mg) was 54 mg and 46 mg. In the test with fibrinogen [1] (Flow thru + Post wash, fibrinogen antigen (nephelometric analysis), plasma load 25 ml, 2.04 mg/ml), the Fibrinogen is below 0.15 mg/mL. The “runs with minimal changes in performance, dynamic resin capacity, or purity of fibrinogen eluates” value with fibrinogen [1] (resin reuse) is given as “over 15 runs”. The dynamic resin capacity in the test with fibrinogen [1] (resin-to-plasma ratios of 1:3.5 to 1:4.5, peptide ligand densities 0.67–0.94 mmol/g resin) is 6–8 g/L of resin. Further, the “API recovered in the flow-through” value with API [2] was 100%. The fibrinogen captured in the test with fibrinogen [3] was 100%. In the test with Apo-A1 lipoprotein [4], the “Apo-A1 lipoprotein detected in the flow-through” value is on record as “Ninety”.

Turning to “WFLHIN ([dW]FLHIN; not fully specified (residues 2, 3, 4, 5, 6)) [D-WFLHIN]”, the “API Flow Through” value with API [5] was found to be 12.5 mg. The “Apo-A1 Elution” value with Apo-A1 lipoprotein [6] (2.0 M NaCl, 1% Tween-20 eluate, load 12.9 mg) is 9.1 mg. For the same substance, the “removal / depletion of Apo-A1 lipoprotein in flow-through” value is listed as “Complete Apo-A1 lipoprotein depletion” with Apo-A1 lipoprotein [6] and “complete removal” in the test with Apo-A1 lipoprotein [6] (listed as WFLHIN). Besides, the “Albumin Flow Through” value with albumin was determined as 386 mg.
